Reference: patent US20260035450A1 (Novo Nordisk, published 2026)

T1: recombinant human ANGPTL3 (rhANGPTL3) (SEQ ID NO:1) (human, UniProt Q9Y5C1 17-460)
T1 sequence: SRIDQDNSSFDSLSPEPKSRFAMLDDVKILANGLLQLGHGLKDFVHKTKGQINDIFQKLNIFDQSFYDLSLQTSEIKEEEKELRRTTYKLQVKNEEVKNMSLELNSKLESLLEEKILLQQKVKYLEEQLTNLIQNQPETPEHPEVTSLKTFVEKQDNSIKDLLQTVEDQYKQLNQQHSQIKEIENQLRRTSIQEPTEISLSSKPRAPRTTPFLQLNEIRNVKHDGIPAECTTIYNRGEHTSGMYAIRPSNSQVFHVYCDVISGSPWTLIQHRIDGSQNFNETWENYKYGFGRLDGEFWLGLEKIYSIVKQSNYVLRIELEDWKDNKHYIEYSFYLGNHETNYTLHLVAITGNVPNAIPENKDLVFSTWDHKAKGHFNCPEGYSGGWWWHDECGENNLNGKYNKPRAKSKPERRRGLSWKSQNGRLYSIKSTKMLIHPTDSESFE


Each binder was assayed against T1, recombinant human ANGPTL3 (rhANGPTL3) … (assay: cell-based or functional assay).

Row | Binder | Average relative IC50 (inhibition of rhANGPTL3-mediated LPL inhibition)
1 | tmAb1 (antibody, human IgG1, kappa) heavy: EVQLLESGGGLVQPGGSLRLSCAASGFNFRSYWMTWVRQAPGKGLEWVSSISSHSTYIYYADSVKGRFTISRDNSKNTLYLQMNSLRAEDTATYYCAREGWYDNWFDPWGQGTLVTVSSASTKGPSVFPLAPSSKSTSGGTAALGCLVKDYFPEPVTVSWNSGALTSGVHTFPAVLQSSGLYSLSSVVTVPSSSLGTQTYICNVNHKPSNTKVDKKVEPKSCDKTHTCPPCPAPEYLGGDSVFLFPPKPKDVLYITREPEVTCVVIDVSHEDPEVKFNWYVDGVEVHNAKTKPREEQYNSTYRVVSVLPVLHRDWLNGKEYKCKVSNKALPKPIEKTISKAKGQRREPQVYTLPPSREEMTKNQVSLWCLVKGFYPSDIAVEWESNGQPENNYKTTPPVLDSDGSFFLYSKLTVDKSRWQQGNVFSCSVMHEALHNHYTQKSLSLSP DKTHTCPPCPAPEYLGGDSVFLFPPKPKDVLYITREPEVTCVVIDVSHEDPEVKFNWYVDGVEVHNAKTKPREEQYNSTYRVVSVLPVLHRDWLNGKEYKCKVSNKALPKPIEKTISKAKGQRREPQVYTLPPSREEMTKNQVSLSCAVKGFYPSDIAVEWESNGQPENNYKTTPPVLDSDGSFFLVSKLTVDKSRWQQGNVFSCSVMHEALHNHYTQKSLSLSP light: EIVLTQSPGTLSLSPGERATLSCRASQNIRSPYLAWYQQKPGQAPRLLIYGVSSRAAGIPDRFSGSGSGTDFTLTISRLEPEDFAVYYCQQYDDHPYTFGQGTKLEIKRTVAAPSVFIFPPSDEQLKSGTASVVCLLNNFYPREAKVQWKVDNALQSGNSQESVTEQDSKDSTYSLSSTLTLSKADYEKHKVYACEVTHQGLSSPVTKSFNRGEC | 3.7 relative to evinacumab SIA
2 | tmAb2 (antibody, human IgG1, kappa) heavy: EVQLLESGGGLVQPGGSLRLSCAASDFNFRSYWMTWVRQAPGKGLEWVSSISSHSTYIYYADSVKGRFTISRDNSKNTLYLQMNSLRAEDTATYYCAREGWYDNWFDPWGQGTLVTVSSASTKGPSVFPLAPSSKSTSGGTAALGCLVKDYFPEPVTVSWNSGALTSGVHTFPAVLQSSGLYSLSSVVTVPSSSLGTQTYICNVNHKPSNTKVDKKVEPKSCDKTHTCPPCPAPEYLGGDSVFLFPPKPKDVLYITREPEVTCVVIDVSHEDPEVKFNWYVDGVEVHNAKTKPREEQYNSTYRVVSVLPVLHRDWLNGKEYKCKVSNKALPKPIEKTISKAKGQRREPQVYTLPPSREEMTKNQVSLWCLVKGFYPSDIAVEWESNGQPENNYKTTPPVLDSDGSFFLYSKLTVDKSRWQQGNVFSCSVMHEALHNHYTQKSLSLSP DKTHTCPPCPAPEYLGGDSVFLFPPKPKDVLYITREPEVTCVVIDVSHEDPEVKFNWYVDGVEVHNAKTKPREEQYNSTYRVVSVLPVLHRDWLNGKEYKCKVSNKALPKPIEKTISKAKGQRREPQVYTLPPSREEMTKNQVSLSCAVKGFYPSDIAVEWESNGQPENNYKTTPPVLDSDGSFFLVSKLTVDKSRWQQGNVFSCSVMHEALHNHYTQKSLSLSP light: EIVLTQSPGTLSLSPGERATLSCRASQNIRSPYLAWYQQKPGQAPRLLIYGVSSRAAGIPDRFSGSGSGTDFTLTISRLEPEDFAVYYCQQYDDHPYTFGQGTKLEIKRTVAAPSVFIFPPSDEQLKSGTASVVCLLNNFYPREAKVQWKVDNALQSGNSQESVTEQDSKDSTYSLSSTLTLSKADYEKHKVYACEVTHQGLSSPVTKSFNRGEC | 2.5 relative to evinacumab SIA
3 | tmAb3 (antibody, human IgG1, kappa) heavy: EVQLLESGGGLVQPGGSLRLSCAASGFNFESYWMTWVRQAPGKGLEWVSSISSHSTYIYYADSVKGRFTISRDNSKNTLYLQMNSLRAEDTATYYCAREGWYDNWFDPWGQGTLVTVSSASTKGPSVFPLAPSSKSTSGGTAALGCLVKDYFPEPVTVSWNSGALTSGVHTFPAVLQSSGLYSLSSVVTVPSSSLGTQTYICNVNHKPSNTKVDKKVEPKSCDKTHTCPPCPAPEYLGGDSVFLFPPKPKDVLYITREPEVTCVVIDVSHEDPEVKFNWYVDGVEVHNAKTKPREEQYNSTYRVVSVLPVLHRDWLNGKEYKCKVSNKALPKPIEKTISKAKGQRREPQVYTLPPSREEMTKNQVSLWCLVKGFYPSDIAVEWESNGQPENNYKTTPPVLDSDGSFFLYSKLTVDKSRWQQGNVFSCSVMHEALHNHYTQKSLSLSP DKTHTCPPCPAPEYLGGDSVFLFPPKPKDVLYITREPEVTCVVIDVSHEDPEVKFNWYVDGVEVHNAKTKPREEQYNSTYRVVSVLPVLHRDWLNGKEYKCKVSNKALPKPIEKTISKAKGQRREPQVYTLPPSREEMTKNQVSLSCAVKGFYPSDIAVEWESNGQPENNYKTTPPVLDSDGSFFLVSKLTVDKSRWQQGNVFSCSVMHEALHNHYTQKSLSLSP light: EIVLTQSPGTLSLSPGERATLSCRASQNIRSPYLAWYQQKPGQAPRLLIYGVSSRAAGIPDRFSGSGSGTDFTLTISRLEPEDFAVYYCQQYDDHPYTFGQGTKLEIKRTVAAPSVFIFPPSDEQLKSGTASVVCLLNNFYPREAKVQWKVDNALQSGNSQESVTEQDSKDSTYSLSSTLTLSKADYEKHKVYACEVTHQGLSSPVTKSFNRGEC | 4.8 relative to evinacumab SIA
4 | tmAb4 (antibody, human IgG1, kappa) heavy: EVQLLESGGGLVQPGGSLRLSCAASGFNFESYWMTWVRQAPGKGLEWVSSISSHSTYIYYADSVKGRFTISRDNSKNTLYLQMNSLRAEDTATYYCAREGWYDNWNDPWGQGTLVTVSSASTKGPSVFPLAPSSKSTSGGTAALGCLVKDYFPEPVTVSWNSGALTSGVHTFPAVLQSSGLYSLSSVVTVPSSSLGTQTYICNVNHKPSNTKVDKKVEPKSCDKTHTCPPCPAPEYLGGDSVFLFPPKPKDVLYITREPEVTCVVIDVSHEDPEVKFNWYVDGVEVHNAKTKPREEQYNSTYRVVSVLPVLHRDWLNGKEYKCKVSNKALPKPIEKTISKAKGQRREPQVYTLPPSREEMTKNQVSLWCLVKGFYPSDIAVEWESNGQPENNYKTTPPVLDSDGSFFLYSKLTVDKSRWQQGNVFSCSVMHEALHNHYTQKSLSLSP DKTHTCPPCPAPEYLGGDSVFLFPPKPKDVLYITREPEVTCVVIDVSHEDPEVKFNWYVDGVEVHNAKTKPREEQYNSTYRVVSVLPVLHRDWLNGKEYKCKVSNKALPKPIEKTISKAKGQRREPQVYTLPPSREEMTKNQVSLSCAVKGFYPSDIAVEWESNGQPENNYKTTPPVLDSDGSFFLVSKLTVDKSRWQQGNVFSCSVMHEALHNHYTQKSLSLSP light: EIVLTQSPGTLSLSPGERATLSCRASQNIRSPYLAWYQQKPGQAPRLLIYGVSSRAAGIPDRFSGSGSGTDFTLTISRLEPEDFAVYYCQQYDDHPYTFGQGTKLEIKRTVAAPSVFIFPPSDEQLKSGTASVVCLLNNFYPREAKVQWKVDNALQSGNSQESVTEQDSKDSTYSLSSTLTLSKADYEKHKVYACEVTHQGLSSPVTKSFNRGEC | 1.3 relative to evinacumab SIA
